{"source": "paper PMC5922973", "about": "“Topoisomerase VI senses and exploits both DNA crossings and bends to facilitate strand passage” (eLife, 2018)", "binders": {"B1": {"name": "60 bp duplex (dsDNA)", "DNA 1": "CGCTTCAATAATATTGAAAAAGGAAGAGTATGAGTATTCAACATTTCCGTGTCGCCCTTC", "DNA 2": "GAAGGGCGACACGGAAATGTTGAATACTCATACTCTTCCTTTTTCAATATTATTGAAGCG"}, "B2": {"name": "40 bp duplex (dsDNA)", "DNA 1": "CTATTGAAAAAGGAAGAGTATGAGTATTCAACATTTCCGC", "DNA 2": "GCGGAAATGTTGAATACTCATACTCTTCCTTTTTCAATAG"}, "B3": {"name": "30 bp duplex (dsDNA)", "DNA 1": "CAAAAAGGAAGAGTATGAGTATTCAACATC", "DNA 2": "GATGTTGAATACTCATACTCTTCCTTTTTG"}, "B4": {"name": "20 bp duplex (dsDNA)", "DNA 1": "CGGAAGAGTATGAGTATTCG", "DNA 2": "CGAATACTCATACTCTTCCG"}, "B5": {"name": "70 bp duplex (dsDNA)", "DNA 1": "CCAAATGCTTCAATAATATTGAAAAAGGAAGAGTATGAGTATTCAACATTTCCGTGTCGCCCTTATTCCC", "DNA 2": "GGGAATAAGGGCGACACGGAAATGTTGAATACTCATACTCTTCCTTTTTCAATATTATTGAAGCATTTGG"}, "B6": {"name": "16 x 20 bp stacked junction (structured_DNA)", "DNA 1": "CGAATACTCAGCTCAACCGAAAGGTTGAGCCTTCGCTCGAAAGAGCGAAGTACTCTTCCG", "DNA 2": "CGGAAGAGTATGAGTATTCG"}}, "note": "Where a chain is given by its changes, count along the chain named.", "data": [{"biological_target": "T1, topo VI H2TH-AAA (Methanosarcina mazei, UniProt Q8PUB7;Q8PUB8 1-369;1-621, R263A;K268A;K308A)", "T1 sequence 1": "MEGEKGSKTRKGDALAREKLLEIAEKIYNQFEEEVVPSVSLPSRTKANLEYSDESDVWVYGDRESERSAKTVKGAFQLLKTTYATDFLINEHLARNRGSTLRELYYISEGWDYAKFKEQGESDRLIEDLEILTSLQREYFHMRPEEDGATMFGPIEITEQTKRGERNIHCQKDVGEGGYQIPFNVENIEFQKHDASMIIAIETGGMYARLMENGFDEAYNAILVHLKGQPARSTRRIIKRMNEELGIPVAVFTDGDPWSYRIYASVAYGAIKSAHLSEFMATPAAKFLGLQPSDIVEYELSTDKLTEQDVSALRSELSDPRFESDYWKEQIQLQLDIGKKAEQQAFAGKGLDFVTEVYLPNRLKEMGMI", "T1 sequence 2": "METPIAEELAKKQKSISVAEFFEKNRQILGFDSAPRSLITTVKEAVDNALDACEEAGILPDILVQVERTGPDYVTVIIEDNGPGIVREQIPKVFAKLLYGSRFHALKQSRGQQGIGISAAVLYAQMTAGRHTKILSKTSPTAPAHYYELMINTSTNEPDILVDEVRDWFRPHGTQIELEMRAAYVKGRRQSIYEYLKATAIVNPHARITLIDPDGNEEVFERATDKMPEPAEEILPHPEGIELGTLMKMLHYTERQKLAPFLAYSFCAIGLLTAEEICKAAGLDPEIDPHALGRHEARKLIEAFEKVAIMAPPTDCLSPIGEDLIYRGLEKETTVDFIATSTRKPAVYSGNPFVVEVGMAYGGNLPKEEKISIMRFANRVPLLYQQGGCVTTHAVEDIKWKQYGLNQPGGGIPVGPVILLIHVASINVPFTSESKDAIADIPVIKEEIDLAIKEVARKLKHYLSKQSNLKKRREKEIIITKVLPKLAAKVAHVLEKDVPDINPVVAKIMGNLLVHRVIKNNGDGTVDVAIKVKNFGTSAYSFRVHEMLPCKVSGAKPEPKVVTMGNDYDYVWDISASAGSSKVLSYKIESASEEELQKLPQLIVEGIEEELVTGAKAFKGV", "assay": "fluorescence anisotropy; Fluorescence anisotropy, 20 nM FAM-labelled DNA, topo VI 0 and 3.9-4000 nM, no nucleotide; buffer, salt, pH and temperature not given in supplied text", "conditions": "protein: recombinant; tags: N-terminal His6-TEV on Top6B, removed; chain copies: 2;2; label: 5'-FAM strand 1; blunt", "units": {"Kd": "nM"}, "values": [{"binder": "B1", "Kd": "167 ± 9"}, {"binder": "B2", "Kd": "58 ± 3"}, {"binder": "B3", "Kd": "94 ± 4"}, {"binder": "B4", "Kd": "505 ± 22"}, {"binder": "B5", "Kd": "180 ± 12"}]}, {"biological_target": "T1, topo VI H2TH-AAA", "assay": "fluorescence anisotropy; Fluorescence anisotropy, 20 nM FAM-labelled DNA, topo VI 0 and 3.9-4000 nM, no nucleotide; buffer, salt, pH and temperature not given in supplied text", "conditions": "protein: recombinant; tags: N-terminal His6-TEV on Top6B, removed; chain copies: 2;2; label: 5'-FAM strand 2; four-way Holliday junction, stacked-X, two GAAA-capped arms", "units": {"Kd": "nM"}, "values": [{"binder": "B6", "Kd": "181 ± 8"}]}, {"biological_target": "T2, topo VI holoenzyme WT (Methanosarcina mazei, UniProt Q8PUB7;Q8PUB8 1-369;1-621)", "T2 sequence 1": "T1 sequence 1", "T2 sequence 2": "T1 sequence 2 with A263R, A268K, A308K", "assay": "fluorescence anisotropy; Fluorescence anisotropy, 20 nM FAM-labelled DNA, topo VI 0 and 3.9-4000 nM, no nucleotide; buffer, salt, pH and temperature not given in supplied text", "conditions": "protein: recombinant; tags: N-terminal His6-TEV on Top6B, removed; chain copies: 2;2; label: 5'-FAM strand 1; blunt", "units": {"Kd": "nM"}, "values": [{"binder": "B1", "Kd": "38 ± 2"}, {"binder": "B2", "Kd": "49 ± 3"}, {"binder": "B3", "Kd": "84 ± 6"}, {"binder": "B4", "Kd": "427 ± 16"}, {"binder": "B5", "Kd": "62 ± 4"}]}, {"biological_target": "T2, topo VI holoenzyme WT", "assay": "fluorescence anisotropy; Fluorescence anisotropy, 20 nM FAM-labelled DNA, topo VI 0 and 3.9-4000 nM, no nucleotide; buffer, salt, pH and temperature not given in supplied text", "conditions": "protein: recombinant; tags: N-terminal His6-TEV on Top6B, removed; chain copies: 2;2; label: 5'-FAM strand 2; four-way Holliday junction, stacked-X, two GAAA-capped arms", "units": {"Kd": "nM"}, "values": [{"binder": "B6", "Kd": "122 ± 4"}]}, {"biological_target": "T3, topo VI KGRR-EEE (Methanosarcina mazei, UniProt Q8PUB7;Q8PUB8 1-369;1-621, K186E;R188E;R189E)", "T3 sequence 1": "T1 sequence 1", "T3 sequence 2": "T1 sequence 2 with K186E, R188E, R189E, A263R, A268K, A308K", "assay": "fluorescence anisotropy; Fluorescence anisotropy, 20 nM FAM-labelled DNA, topo VI 0 and 3.9-4000 nM, no nucleotide; buffer, salt, pH and temperature not given in supplied text", "conditions": "protein: recombinant; tags: N-terminal His6-TEV on Top6B, removed; chain copies: 2;2; label: 5'-FAM strand 1; blunt", "units": {"Kd": "nM"}, "values": [{"binder": "B1", "Kd": "119 ± 3"}, {"binder": "B2", "Kd": "75 ± 4"}, {"binder": "B3", "Kd": "82 ± 7"}, {"binder": "B4", "Kd": "338 ± 15"}, {"binder": "B5", "Kd": "193 ± 4"}]}]}
